According to PMC6555819, “Comprehensive study of nuclear receptor DNA binding provides a revised framework for understanding receptor specificity”:
Positions count from the first letter of the chain named.

B1: NRC3_wobSeed93_DR3_T11G_o1 (dsDNA)
DNA 1: GCAGTCAAAGGTCATCTAGGTAACGTAAGATATGCTGCGATTGACAGCGTAGAATGAAGG
DNA 2: CCTTCATTCTACGCTGTCAATCGCAGCATATCTTACGTTACCTAGATGACCTTTGACTGC
B2: NRC3_wobSeed33_DR1_A13T_o1 (dsDNA)
DNA 1: GCATCTCTAGGTTAAAGTTCAGTGAATCCCGAGGATGCGATTGACAGCGTAGAATGAAGG
DNA 2: CCTTCATTCTACGCTGTCAATCGCATCCTCGGGATTCACTGAACTTTAACCTAGAGATGC
B3: NRC3_wobSeed29_DR1_A7C_o1 (dsDNA)
DNA 1: GCGCTTCCGGGTCAAAGGTTATAGCATGAATAGAATGCGATTGACAGCGTAGAATGAAGG
DNA 2: CCTTCATTCTACGCTGTCAATCGCATTCTATTCATGCTATAACCTTTGACCCGGAAGCGC
B4: NRC3_wobSeed37_DR1_G22C_o1 (dsDNA)
DNA 1: GCCGTCCAAGGTCAAAGGTCACTGAAGAGATGACGGGCGATTGACAGCGTAGAATGAAGG
DNA 2: CCTTCATTCTACGCTGTCAATCGCCCGTCATCTCTTCAGTGACCTTTGACCTTGGACGGC
B5: NRC3_wobSeed76_DR3_T21C_o1 (dsDNA)
DNA 1: GCCCTACTGGGCCAAAAAGGCCATTGATGCCGATAAGCGATTGACAGCGTAGAATGAAGG
DNA 2: CCTTCATTCTACGCTGTCAATCGCTTATCGGCATCAATGGCCTTTTTGGCCCAGTAGGGC
B6: NRC3_random_hg19_455_o1 (dsDNA)
DNA 1: GCCTGCAGTTTCTGTTTCCGTGGTCCAGGTTGAGCCGCGATTGACAGCGTAGAATGAAGG
DNA 2: CCTTCATTCTACGCTGTCAATCGCGGCTCAACCTGGACCACGGAAACAGAAACTGCAGGC
B7: NRC3_wobSeed73_DR3_A6T_o1 (dsDNA)
DNA 1: GCCAATCTAGGTCACAGAGGTCAAAGTCCGTGCGTAGCGATTGACAGCGTAGAATGAAGG
DNA 2: CCTTCATTCTACGCTGTCAATCGCTACGCACGGACTTTGACCTCTGTGACCTAGATTGGC
B8: NRC3_random_hg19_385_o1 (dsDNA)
DNA 1: GCTCTATGGTCACTAGACCTTGGGATGCACCAAGGCGCGATTGACAGCGTAGAATGAAGG
DNA 2: CCTTCATTCTACGCTGTCAATCGCGCCTTGGTGCATCCCAAGGTCTAGTGACCATAGAGC
B9: NRC3_random_hg19_319_o1 (dsDNA)
DNA 1: GCTCCCTGCCAGCCCTGGTCTGAAGCAAGCCTAGAGGCGATTGACAGCGTAGAATGAAGG
DNA 2: CCTTCATTCTACGCTGTCAATCGCCTCTAGGCTTGCTTCAGACCAGGGCTGGCAGGGAGC
B10: NRC3_random_hg19_250_o1 (dsDNA)
DNA 1: GCCAAGACCATCCTGGCTAACACAGTGAAACCCTGTGCGATTGACAGCGTAGAATGAAGG
DNA 2: CCTTCATTCTACGCTGTCAATCGCACAGGGTTTCACTGTGTTAGCCAGGATGGTCTTGGC
B11: NRC3_random_hg19_290_o1 (dsDNA)
DNA 1: GCGCCTCCATCTCAGGACTTGATTCTATTGAGTTAAGCGATTGACAGCGTAGAATGAAGG
DNA 2: CCTTCATTCTACGCTGTCAATCGCTTAACTCAATAGAATCAAGTCCTGAGATGGAGGCGC
B12: NRC3_random_hg19_195_o1 (dsDNA)
DNA 1: GCGGACTGTCTGCAAAGAGTCCTGTGATATGATCTGGCGATTGACAGCGTAGAATGAAGG
DNA 2: CCTTCATTCTACGCTGTCAATCGCCAGATCATATCACAGGACTCTTTGCAGACAGTCCGC
B13: NRC3_wobSeed29_DR1_C25T_o1 (dsDNA)
DNA 1: B3 DNA 1 with C7A, C25T
DNA 2: B3 DNA 2 with G36A, G54T
B14: NRC3_wobSeed37_DR1_G24A_o1 (dsDNA)
DNA 1: B4 DNA 1 with C22G, G24A
DNA 2: B4 DNA 2 with C37T, G39C
B15: NRC3_wobSeed49_DR2_A5C_o1 (dsDNA)
DNA 1: GCCACACTAGGTCAAGAGGTCAAAGTCCGCTTCCCGGCGATTGACAGCGTAGAATGAAGG
DNA 2: CCTTCATTCTACGCTGTCAATCGCCGGGAAGCGGACTTTGACCTCTTGACCTAGTGTGGC
B16: NRC3_wobSeed28_DR1_T8A_o1 (dsDNA)
DNA 1: GCCCTACAGGGCCAAAGGTCATTGATTCCAATGCTCGCGATTGACAGCGTAGAATGAAGG
DNA 2: CCTTCATTCTACGCTGTCAATCGCGAGCATTGGAATCAATGACCTTTGGCCCTGTAGGGC
B17: NRC3_wobSeed97_DR4_A6T_o1 (dsDNA)
DNA 1: GCCAATCTAGGTCACGAAAGGTCAAAGTCGAATGACGCGATTGACAGCGTAGAATGAAGG
DNA 2: CCTTCATTCTACGCTGTCAATCGCGTCATTCGACTTTGACCTTTCGTGACCTAGATTGGC
B18: NRC3_wobSeed109_DR4_G25C_o1 (dsDNA)
DNA 1: GCCGTCCAAGGTCATAGGAGGTCACTGAAGACAGATGCGATTGACAGCGTAGAATGAAGG
DNA 2: CCTTCATTCTACGCTGTCAATCGCATCTGTCTTCAGTGACCTCCTATGACCTTGGACGGC
B19: NRC3_wobSeed25_DR1_C26T_o1 (dsDNA)
DNA 1: GCCAAACTAGGTCAAAGGTCAAAGTTGAGCCAACCAGCGATTGACAGCGTAGAATGAAGG
DNA 2: CCTTCATTCTACGCTGTCAATCGCTGGTTGGCTCAACTTTGACCTTTGACCTAGTTTGGC
B20: NRC3_wobSeed25_DR1_A5G_o1 (dsDNA)
DNA 1: B19 DNA 1 with A5G, T26C
DNA 2: B19 DNA 2 with A35G, T56C
B21: NRC3_wobSeed46_DR1_C7A_o1 (dsDNA)
DNA 1: GCTTACAAAGGTGAAAGGTCGTTGATGCACGCCTTGGCGATTGACAGCGTAGAATGAAGG
DNA 2: CCTTCATTCTACGCTGTCAATCGCCAAGGCGTGCATCAACGACCTTTCACCTTTGTAAGC
B22: NRC3_wobSeed41_DR1_T8G_o1 (dsDNA)
DNA 1: GCATATGGAGGTTAAGGGTCATTCAGGTTGGTTCGCGCGATTGACAGCGTAGAATGAAGG
DNA 2: CCTTCATTCTACGCTGTCAATCGCGCGAACCAACCTGAATGACCCTTAACCTCCATATGC

Target: RXRa (Homo sapiens, UniProt P19793)
Assay: no ligand; PBM; 180 nM; PBS pH 7.4, 2% milk, 0.02% Triton X-100, 1 mM DTT, BSA, 0.4 mg/ml salmon testes DNA
Conditions: tags: His cleaved; chain copies: 2; label: surface-attached array probe

| Binder | binding signal |
| --- | --- |
| B1 | 8.08 PBM z-score against 500 random probes |

Target: PPARg:RXRa (Homo sapiens, UniProt P37231;P19793 full;full)
Assay: no ligand; PBM; 180 nM : 90 nM RXRa; PBS pH 7.4, 2% milk, 0.02% Triton X-100, 1 mM DTT, BSA, 0.4 mg/ml salmon testes DNA
Conditions: tags: His kept;His cleaved; copies: 1;1; label: surface-attached array probe

Chain of PPARg:RXRa (P37231 29-505, chain 1 of 2): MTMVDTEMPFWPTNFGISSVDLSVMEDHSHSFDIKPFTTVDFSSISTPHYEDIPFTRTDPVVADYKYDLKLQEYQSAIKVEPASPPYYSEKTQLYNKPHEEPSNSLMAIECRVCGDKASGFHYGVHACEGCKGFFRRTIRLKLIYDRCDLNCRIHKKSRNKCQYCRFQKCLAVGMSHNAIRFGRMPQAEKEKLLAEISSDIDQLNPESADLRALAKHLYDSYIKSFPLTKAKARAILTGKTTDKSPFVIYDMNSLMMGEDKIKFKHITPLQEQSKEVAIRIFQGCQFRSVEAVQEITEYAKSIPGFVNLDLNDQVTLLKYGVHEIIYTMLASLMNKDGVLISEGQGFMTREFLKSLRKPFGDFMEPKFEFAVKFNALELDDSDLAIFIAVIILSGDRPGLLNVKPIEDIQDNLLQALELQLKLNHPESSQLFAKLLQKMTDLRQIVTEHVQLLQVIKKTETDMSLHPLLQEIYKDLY
Chain of PPARg:RXRa (P19793 whole entry, chain 2 of 2): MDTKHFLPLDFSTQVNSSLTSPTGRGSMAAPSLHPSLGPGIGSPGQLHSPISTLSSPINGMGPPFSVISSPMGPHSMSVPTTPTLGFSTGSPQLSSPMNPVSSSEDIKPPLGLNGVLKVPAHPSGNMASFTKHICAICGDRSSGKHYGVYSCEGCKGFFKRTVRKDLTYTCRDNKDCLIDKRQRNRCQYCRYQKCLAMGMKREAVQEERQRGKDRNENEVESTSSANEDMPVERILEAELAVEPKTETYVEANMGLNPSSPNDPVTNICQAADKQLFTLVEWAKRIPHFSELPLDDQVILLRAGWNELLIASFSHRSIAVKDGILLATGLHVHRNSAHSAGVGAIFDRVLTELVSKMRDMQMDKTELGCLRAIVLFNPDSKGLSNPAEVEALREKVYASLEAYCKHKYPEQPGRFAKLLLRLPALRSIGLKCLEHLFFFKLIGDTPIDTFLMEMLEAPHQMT

| Binder | binding signal |
| --- | --- |
| B2 | 10 PBM z-score against 500 random probes |
| B3 | 12.4 PBM z-score against 500 random probes |
| B4 | 11.9 PBM z-score against 500 random probes |
| B5 | 0.38 PBM z-score against 500 random probes |
| B1 | 10.1 PBM z-score against 500 random probes |
| B6 | -2.08 PBM z-score against 500 random probes |
| B7 | 10.7 PBM z-score against 500 random probes |
| B8 | 0.45 PBM z-score against 500 random probes |
| B9 | -1.25 PBM z-score against 500 random probes |
| B10 | 0.19 PBM z-score against 500 random probes |
| B11 | -0.43 PBM z-score against 500 random probes |
| B12 | 0.1 PBM z-score against 500 random probes |

Target: RARb:RXRa (Homo sapiens, UniProt P10826;P19793 full;full)
Assay: no ligand; PBM; 270 nM : 90 nM RXRa; PBS pH 7.4, 2% milk, 0.02% Triton X-100, 1 mM DTT, BSA, 0.4 mg/ml salmon testes DNA
Conditions: tags: His kept;His cleaved; copies: 1;1; label: surface-attached array probe
Method in brief: (§1)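 Antibodies against each partner of ligand-free nuclear receptor dimers (one per run) detected binding on custom Agilent 4×180K protein-binding microarrays after 1 h incubation. The double-stranded probes had 34-nt variable regions carrying direct-repeat seeds, single-nucleotide variants, half-site ablations and random human genomic background sequences. Binding z-scores, from regression-normalized fluorescence, use the random background probes as reference.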

| Binder | binding signal |
| --- | --- |
| B1 | 6.16 PBM z-score against 500 random probes |
| B10 | -0.3 PBM z-score against 500 random probes |

Target: VDR:RXRa (Homo sapiens, UniProt P11473;P19793 full;full)
Assay: as above
Conditions: tags: His kept;His cleaved; copies: 1;1; label: surface-attached array probe
Method in brief: as §1

| Binder | binding signal |
| --- | --- |
| B4 | 7.17 PBM z-score against 500 random probes |
| B10 | -0.26 PBM z-score against 500 random probes |

Target: LXRa:RXRa (Homo sapiens, UniProt Q13133;P19793 full;full)
Assay: as above
Conditions: tags: His kept;His cleaved; copies: 1;1; label: surface-attached array probe
Method in brief: as §1

Chain of LXRa:RXRa (Q13133 whole entry, chain 1 of 2): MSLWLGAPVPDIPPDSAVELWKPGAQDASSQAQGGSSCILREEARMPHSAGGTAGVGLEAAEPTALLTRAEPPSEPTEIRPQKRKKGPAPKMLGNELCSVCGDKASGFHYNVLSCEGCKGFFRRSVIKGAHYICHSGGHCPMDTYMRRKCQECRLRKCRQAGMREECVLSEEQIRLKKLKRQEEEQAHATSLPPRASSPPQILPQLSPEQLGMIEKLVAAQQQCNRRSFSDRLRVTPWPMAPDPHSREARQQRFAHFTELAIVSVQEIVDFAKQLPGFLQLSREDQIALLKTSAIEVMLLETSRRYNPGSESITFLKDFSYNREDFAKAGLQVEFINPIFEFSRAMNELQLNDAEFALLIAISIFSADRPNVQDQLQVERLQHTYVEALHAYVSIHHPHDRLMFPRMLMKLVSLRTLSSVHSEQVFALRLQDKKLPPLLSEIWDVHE
Chain of LXRa:RXRa (P19793 whole entry, chain 2 of 2): as the sequence (P19793 whole entry, chain 2 of 2) above

| Binder | binding signal |
| --- | --- |
| B1 | 7.01 PBM z-score against 500 random probes |
| B8 | 0.2 PBM z-score against 500 random probes |
| B10 | -0.15 PBM z-score against 500 random probes |
| B12 | -1.32 PBM z-score against 500 random probes |

Target: PPARa:RXRa (Homo sapiens, UniProt Q07869;P19793 full;full)
Assay: as above
Conditions: tags: GST kept;His cleaved; copies: 1;1; label: surface-attached array probe
Method in brief: as §1

| Binder | binding signal |
| --- | --- |
| B1 | 7.57 PBM z-score against 500 random probes |
| B11 | -0.45 PBM z-score against 500 random probes |

Target: LXRb:RXRa (Homo sapiens, UniProt P55055;P19793 full;full)
Assay: as above
Conditions: tags: His kept;His cleaved; copies: 1;1; label: surface-attached array probe
Method in brief: as §1

| Binder | binding signal |
| --- | --- |
| B1 | 6.47 PBM z-score against 500 random probes |
| B10 | -0.42 PBM z-score against 500 random probes |

Target: FXR:RXRa (Homo sapiens, UniProt Q96RI1;P19793 full;full)
Assay: as above
Conditions: tags: His kept;His cleaved; copies: 1;1; label: surface-attached array probe
Method in brief: as §1

| Binder | binding signal |
| --- | --- |
| B1 | 8.84 PBM z-score against 500 random probes |
| B10 | 0 PBM z-score against 500 random probes |

Target: PXR:RXRa (Homo sapiens, UniProt O75469;P19793 full;full)
Assay: as above
Conditions: tags: His kept;His cleaved; copies: 1;1; label: surface-attached array probe
Method in brief: as §1

Chain of PXR:RXRa (O75469 whole entry, chain 1 of 2): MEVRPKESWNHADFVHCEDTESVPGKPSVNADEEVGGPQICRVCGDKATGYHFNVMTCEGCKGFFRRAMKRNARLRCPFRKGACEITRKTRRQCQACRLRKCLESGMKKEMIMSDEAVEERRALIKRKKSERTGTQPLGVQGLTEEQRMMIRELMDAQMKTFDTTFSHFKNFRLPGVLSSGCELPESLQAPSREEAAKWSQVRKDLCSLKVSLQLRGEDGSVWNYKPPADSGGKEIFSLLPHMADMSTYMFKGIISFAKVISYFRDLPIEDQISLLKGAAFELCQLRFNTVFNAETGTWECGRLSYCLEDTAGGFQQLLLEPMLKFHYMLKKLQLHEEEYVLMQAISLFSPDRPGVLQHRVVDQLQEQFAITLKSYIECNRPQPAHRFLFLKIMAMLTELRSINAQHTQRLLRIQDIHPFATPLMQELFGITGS
Chain of PXR:RXRa (P19793 whole entry, chain 2 of 2): as the sequence (P19793 whole entry, chain 2 of 2) above

| Binder | binding signal |
| --- | --- |
| B2 | 3.64 PBM z-score against 500 random probes |
| B3 | 6.49 PBM z-score against 500 random probes |
| B4 | 7.38 PBM z-score against 500 random probes |
| B5 | -0.08 PBM z-score against 500 random probes |
| B6 | -0.33 PBM z-score against 500 random probes |
| B7 | 7.27 PBM z-score against 500 random probes |
| B8 | 0.11 PBM z-score against 500 random probes |
| B9 | -0.63 PBM z-score against 500 random probes |
| B11 | -0.26 PBM z-score against 500 random probes |
| B12 | -0.96 PBM z-score against 500 random probes |

Target: RARa:RXRa (Homo sapiens, UniProt P10276;P19793 full;full)
Assay: as above
Conditions: tags: His kept;His cleaved; copies: 1;1; label: surface-attached array probe
Method in brief: as §1

Chain of RARa:RXRa (P10276 whole entry, chain 1 of 2): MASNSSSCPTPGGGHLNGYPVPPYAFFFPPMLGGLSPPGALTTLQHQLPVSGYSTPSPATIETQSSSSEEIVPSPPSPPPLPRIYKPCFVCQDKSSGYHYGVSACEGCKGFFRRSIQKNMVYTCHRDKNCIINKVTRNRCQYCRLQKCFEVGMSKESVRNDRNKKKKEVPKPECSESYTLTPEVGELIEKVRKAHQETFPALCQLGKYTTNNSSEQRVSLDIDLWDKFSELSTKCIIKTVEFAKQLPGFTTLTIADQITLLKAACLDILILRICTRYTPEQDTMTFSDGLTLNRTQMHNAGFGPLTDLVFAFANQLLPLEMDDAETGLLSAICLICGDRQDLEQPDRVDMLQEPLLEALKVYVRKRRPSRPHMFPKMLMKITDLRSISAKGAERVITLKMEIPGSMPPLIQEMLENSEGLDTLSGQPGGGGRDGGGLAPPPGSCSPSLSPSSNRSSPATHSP
Chain of RARa:RXRa (P19793 whole entry, chain 2 of 2): as the sequence (P19793 whole entry, chain 2 of 2) above

| Binder | binding signal |
| --- | --- |
| B13 | 8.73 PBM z-score against 500 random probes |
| B14 | 9.33 PBM z-score against 500 random probes |
| B15 | 8.44 PBM z-score against 500 random probes |
| B16 | 7.45 PBM z-score against 500 random probes |
| B17 | 8.17 PBM z-score against 500 random probes |
| B18 | 7.71 PBM z-score against 500 random probes |
| B19 | 9.38 PBM z-score against 500 random probes |
| B20 | 9.27 PBM z-score against 500 random probes |
| B21 | 7.64 PBM z-score against 500 random probes |
| B22 | 7.62 PBM z-score against 500 random probes |

Target: RARg:RXRa (Homo sapiens, UniProt P13631;P19793 full;full)
Assay: as above
Conditions: tags: His kept;His cleaved; copies: 1;1; label: surface-attached array probe
Method in brief: as §1

Chain of RARg:RXRa (P13631 whole entry, chain 1 of 2): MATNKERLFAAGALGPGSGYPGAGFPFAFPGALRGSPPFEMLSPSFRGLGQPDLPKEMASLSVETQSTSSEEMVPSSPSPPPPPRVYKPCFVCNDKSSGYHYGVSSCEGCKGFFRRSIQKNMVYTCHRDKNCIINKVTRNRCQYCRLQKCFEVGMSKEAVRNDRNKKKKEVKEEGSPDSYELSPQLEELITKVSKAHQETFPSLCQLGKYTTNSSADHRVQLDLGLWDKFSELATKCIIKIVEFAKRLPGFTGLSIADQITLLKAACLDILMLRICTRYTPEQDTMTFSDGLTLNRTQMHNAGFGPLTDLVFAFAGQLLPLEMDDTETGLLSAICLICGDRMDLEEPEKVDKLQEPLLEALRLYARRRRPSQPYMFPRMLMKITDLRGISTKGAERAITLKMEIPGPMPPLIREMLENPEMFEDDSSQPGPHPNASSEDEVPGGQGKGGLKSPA
Chain of RARg:RXRa (P19793 whole entry, chain 2 of 2): as the sequence (P19793 whole entry, chain 2 of 2) above

| Binder | binding signal |
| --- | --- |
| B4 | 9.31 PBM z-score against 500 random probes |
| B1 | 7.62 PBM z-score against 500 random probes |
| B11 | -0.59 PBM z-score against 500 random probes |
